Here are results for eight molecules from patent US10913773B2, “Bicyclic peptidyl inhibitor of tumor necrosis factor-alpha” (Ohio State Innovation Foundation, priority 2016, dated 2021).

Experiment [1] concerns the target T1, Recombinant TNFα containing an N-terminal 13-aa ybbR tag (human, UniProt P01375 77-233, biotin at the ybbR tag in the ELISA assays).
T1 construct: Expressed in E. coli; Same construct used unlabelled (FA) and biotinylated on NeutrAvidin (ELISA); also called tumor necrosis factor-alpha; human TNFα; not shown: N-terminal 13-aa ybbR tag
The experiment is described as follows: FA, FITC-peptide + TNFα titration. Here is the method: (§1) The FA values were measured on a Molecular Devices Spectramax M5 spectrofluorimeter, with excitation and emission wavelengths at 485 and 525 nm, respectively. Equilibrium dissociation constants (KD) were determined by plotting the FA values as a function of TNFα concentration and fitting the data to the following equation $$Y = \frac{\left(Amin + \left(Amax \times \frac{Q_b}{Q_f} - Amin\right)\left(\frac{(L+x+K_d) - \sqrt{((L+x+K_d)^2 - 4Lx)}}{2L}\right)\right)}{\left(1 + \left(\frac{Q_b}{Q_f} - 1\right)\left(\frac{(L+x+K_d) - \sqrt{((L+x+K_d)^2 - 4Lx)}}{2L}\right)\right)}$$
(§2) where Y is the measured anisotropy at a given TNFα concentration x; L is the bicyclic peptide concentration; Qb/Qf is the correction fact for dye-protein interaction; Amax is the maximum anisotropy when all the peptides are bound to TNFα, while $Amin$ is the minimum anisotropy. […] The FA values were plotted against the competitor peptide concentration to determine the IC$50$ values.

The target in experiment [2] is T1, Recombinant TNFα containing an …. The experiment can be described thus: FA; against C1. Here is the method:
as §1, §2

Experiment [3] has the same target. The experiment can be described thus: FA, FITC-peptide + TNFα titration. The source holds these as a separate data set.
Experiment [4] has the same target. The experiment can be described thus: FA. Here is the method: as §1, §2
For experiment [5] the target is unchanged. The experiment can be described thus: FA, FITC-peptide + TNFα titration. Here is the method: as §1, §2
This is another data set of the same source.

Like-named read-outs stand apart in the source and are kept apart here. Positions of bridges follow the written chain, without caps; N, C: chain ends. Non-standard residues stand in square brackets, D forms with d. Primed or numbered codes have the meaning given here. No end group written: not given here. *: point of attachment. FITC(3) = fluorescein isothiocyanate (N6-fluorescein-thiocarbamoyl on Lys); FITC = O=C1OC2(c3ccc(O)cc3Oc3cc(O)ccc32)c2ccc(NC(=S)*)cc21; trimesoyl″ = benzene-1,3,5-tricarbonyl scaffold; FITC′ = fluorescein isothiocyanate, on Lys NZ; Phg = N[C@H](C(=O)O)c1ccccc1; Nle = CCCC[C@H](N)C(=O)O; Dap = NC[C@H](N)C(=O)O; AEEA = NCCOCCOCC(=O)O

T1 sequence (P01375 77-233): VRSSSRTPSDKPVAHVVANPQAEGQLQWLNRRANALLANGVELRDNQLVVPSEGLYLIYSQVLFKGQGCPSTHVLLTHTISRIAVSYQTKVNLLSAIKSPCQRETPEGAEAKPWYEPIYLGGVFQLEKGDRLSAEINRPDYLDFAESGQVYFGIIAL

For the molecule [Nle]Y[dS]KW[dH]G[dK]H[Dap]F[AEEA]K(FITC)-NH2 (linker N-4-10 via trimesoyl″, C1-35 core with R11 as printed) [C1-55], in experiment [1], the Kd (usually the equilibrium constant for the complex coming apart) is 1000 nM.

In the case of [Nle]Y[dS]KW[dH]G[dK]H[Dap]I[AEEA]K(FITC)-NH2 (linker N-4-10 via trimesoyl″, C1-35 core with R11 as printed) [C1-57], the Kd in experiment [1] is 510 nM.

With AY[dA]KY[dF]G[dK]H[Dap]NNNK(FITC(3))-NH2 (linker N-4-10 via trimesoyl″) [Anticachexin C1 Phg1 → Ala, NNNK(FITC)-tagged], the “Fold of Affinity Reduction” value in experiment [2] was determined as 1.2 fold. Also, the dissociation constant Kd in experiment [3] worked out at 1000 nM.

B1: Anticachexin C1 Tyr5 → Ala, NNNK(FITC)-tagged (peptide)
peptide: [Phg]Y[dA]KA[dF]G[dK]H[Dap]NNNK(FITC′)-NH2
modifications: bridge (positions not given here) via trimesoyl″; not fully specified (N-terminus, bridges); also: feature: K4 labeled with FITC
Take B1: the “Fold of Affinity Reduction” value in experiment [2] came out at 12 fold. In addition, the Kd in experiment [3] came out at 11000 nM. Turning to [Nle]Y[dS]KW[dH]G[dK]H[Dap][AEEA]K(FITC)-NH2 (linker N-4-10 via trimesoyl″, C1-35 core with R11 as printed) [C1-54], the Kd in experiment [1] was 5100 nM. As to [Nle]Y[dS]KW[dH]G[dK]H[Dap]DK(FITC)-NH2 (linker (positions not given here) via trimesoyl″; not fully specified (bridges), C1-35 core with R11 as printed) [C1-51], in experiment [1], the Kd was found to be 3500 nM. Consider [Nle]Y[dS]KW[dH]G[dK]H[Dap]NK(FITC)-NH2 (linker N-4-10 via trimesoyl″, C1-35 core with R11 as printed) [C1-52], for which the “fold reduction in affinity against C1-35” value in experiment [4] was 3 fold. Moreover, in experiment [1], the Kd was 790 nM.

For the molecule [Nle]Y[dS]KW[dH]G[dK]H[Dap]K(FITC)-NH2 (linker N-4-10 via trimesoyl″) [C1-35], in experiment [4], the “fold increase in affinity against Tyr at position-5” value came to 3 fold. Also, the Kd in experiment [3], in experiment [1] and in experiment [5] was 260 nM throughout.
